B1: CPEB3 Ribozyme (parent)
chain: GGGGGCCACAGCAGAAGCGUUCACGUCGCGGCCCCUGUCAGAUUCUGGUGAAUCUGCGAAUUCUGCUGU

Variants of: B1
Assay: self-cleavage, relative activity (ratio to wild type); higher = more cleavage; co-transcriptional

Variant	self-cleavage
GGGGGCCACAGCAGAAGCGUUCACGUCGCGGCCCCUGUCAGAGUCUGGUGAAUCUGCGAAUUCAGCUGU [U43G U64A]	0.506
GGGGGCCACAGCAGAAGCGUUCACGUCGCGGCCCCUGUCAGAGUCUGGUGAAUCUGCGAAUUCCGCUGU [U43G U64C]	0.409
GGGGGCCACAGCAGAAGCGUUCACGUCGCGGCCCCUGUCAGAGUCUGGUGAAUCUGCGAAUUCUGCAGU [U43G U67A]	0.79
GGGGGCCACAGCAGAAGCGUUCACGUCGCGGCCCCUGUCAGAGUCUGGUGAAUCUGCGAAUUCUGCCGU [U43G U67C]	0.915
GGGGGCCACAGCAGAAGCGUUCACGUCGCGGCCCCUGUCAGAGUCUGGUGAAUCUGCGAAUUCUGCGGU [U43G U67G]	0.867
GGGGGCCACAGCAGAAGCGUUCACGUCGCGGCCCCUGUCAGAGUCUGGUGAAUCUGCGAAUUCUGCUGG [U43G U69G]	0.97
GGGGGCCACAGCAGAAGCGUUCACGUCGCGGCCCCUGUCAGAUACUGGUGAAUCUGCGAAUUCUGCUGU [U44A]	0.983
GGGGGCCACAGCAGAAGCGUUCACGUCGCGGCCCCUGUCAGAUACUGGUGUAUCUGCGAAUUCUGCUGU [U44A A51U]	0.998
GGGGGCCACAGCAGAAGCGUUCACGUCGCGGCCCCUGUCAGAUACUGGUGAUUCUGCGAAUUCUGCUGU [U44A A52U]	0.969
GGGGGCCACAGCAGAAGCGUUCACGUCGCGGCCCCUGUCAGAUACUGGUGAAUCUGCGCAUUCUGCUGU [U44A A59C]	0.638
GGGGGCCACAGCAGAAGCGUUCACGUCGCGGCCCCUGUCAGAUACUGGUGAAUCUGCGGAUUCUGCUGU [U44A A59G]	0.924
GGGGGCCACAGCAGAAGCGUUCACGUCGCGGCCCCUGUCAGAUACUGGUGAAUCUGCGUAUUCUGCUGU [U44A A59U]	0.725
GGGGGCCACAGCAGAAGCGUUCACGUCGCGGCCCCUGUCAGAUACUGGUGAAUCUGCGACUUCUGCUGU [U44A A60C]	0.423
GGGGGCCACAGCAGAAGCGUUCACGUCGCGGCCCCUGUCAGAUACUGGUGAAUCUGCGAUUUCUGCUGU [U44A A60U]	0.353
GGGGGCCACAGCAGAAGCGUUCACGUCGCGGCCCCUGUCAGAUAGUGGUGAAUCUGCGAAUUCUGCUGU [U44A C45G]	0.983
GGGGGCCACAGCAGAAGCGUUCACGUCGCGGCCCCUGUCAGAUAUUGGUGAAUCUGCGAAUUCUGCUGU [U44A C45U]	0.965
GGGGGCCACAGCAGAAGCGUUCACGUCGCGGCCCCUGUCAGAUACUGGUGAAUAUGCGAAUUCUGCUGU [U44A C54A]	0.588
GGGGGCCACAGCAGAAGCGUUCACGUCGCGGCCCCUGUCAGAUACUGGUGAAUGUGCGAAUUCUGCUGU [U44A C54G]	0.461
GGGGGCCACAGCAGAAGCGUUCACGUCGCGGCCCCUGUCAGAUACUGGUGAAUCUGAGAAUUCUGCUGU [U44A C57A]	0.383
GGGGGCCACAGCAGAAGCGUUCACGUCGCGGCCCCUGUCAGAUACUGGUGAAUCUGGGAAUUCUGCUGU [U44A C57G]	0.365
GGGGGCCACAGCAGAAGCGUUCACGUCGCGGCCCCUGUCAGAUACUGGUGAAUCUGUGAAUUCUGCUGU [U44A C57U]	0.397
GGGGGCCACAGCAGAAGCGUUCACGUCGCGGCCCCUGUCAGAUACUGGUGAAUCUGCGAAUUAUGCUGU [U44A C63A]	0.731
GGGGGCCACAGCAGAAGCGUUCACGUCGCGGCCCCUGUCAGAUACUGGUGAAUCUGCGAAUUCUGGUGU [U44A C66G]	0.658
GGGGGCCACAGCAGAAGCGUUCACGUCGCGGCCCCUGUCAGAUACUGGUGAAUCUGCGAAUUCUGUUGU [U44A C66U]	0.926
GGGGGCCACAGCAGAAGCGUUCACGUCGCGGCCCCUGUCAGAUACUCGUGAAUCUGCGAAUUCUGCUGU [U44A G47C]	0.93
GGGGGCCACAGCAGAAGCGUUCACGUCGCGGCCCCUGUCAGAUACUGAUGAAUCUGCGAAUUCUGCUGU [U44A G48A]	0.953

Variant	self-cleavage
GGGGGCCACAGCAGAAGCGUUCACGUCGCGGCCCCUGUCAGAUACUGGUCAAUCUGCGAAUUCUGCUGU [U44A G50C]	1
GGGGGCCACAGCAGAAGCGUUCACGUCGCGGCCCCUGUCAGAUACUGGUUAAUCUGCGAAUUCUGCUGU [U44A G50U]	0.984
GGGGGCCACAGCAGAAGCGUUCACGUCGCGGCCCCUGUCAGAUACUGGUGAAUCUACGAAUUCUGCUGU [U44A G56A]	0.849
GGGGGCCACAGCAGAAGCGUUCACGUCGCGGCCCCUGUCAGAUACUGGUGAAUCUCCGAAUUCUGCUGU [U44A G56C]	0.383
GGGGGCCACAGCAGAAGCGUUCACGUCGCGGCCCCUGUCAGAUACUGGUGAAUCUGCCAAUUCUGCUGU [U44A G58C]	1.01
GGGGGCCACAGCAGAAGCGUUCACGUCGCGGCCCCUGUCAGAUACUGGUGAAUCUGCGAAUUCUACUGU [U44A G65A]	0.755
GGGGGCCACAGCAGAAGCGUUCACGUCGCGGCCCCUGUCAGAUACUGGUGAAUCUGCGAAUUCUCCUGU [U44A G65C]	0.422
GGGGGCCACAGCAGAAGCGUUCACGUCGCGGCCCCUGUCAGAUACUGGUGAAUCUGCGAAUUCUUCUGU [U44A G65U]	0.588
GGGGGCCACAGCAGAAGCGUUCACGUCGCGGCCCCUGUCAGAUACUGGUGAAUCUGCGAAUUCUGCUAU [U44A G68A]	0.964
GGGGGCCACAGCAGAAGCGUUCACGUCGCGGCCCCUGUCAGAUACUGGUGAAUCUGCGAAUUCUGCUCU [U44A G68C]	1.01
GGGGGCCACAGCAGAAGCGUUCACGUCGCGGCCCCUGUCAGAUACUGGUGAAUCUGCGAAUUCUGCUUU [U44A G68U]	0.981
GGGGGCCACAGCAGAAGCGUUCACGUCGCGGCCCCUGUCAGAUACAGGUGAAUCUGCGAAUUCUGCUGU [U44A U46A]	0.99
GGGGGCCACAGCAGAAGCGUUCACGUCGCGGCCCCUGUCAGAUACUGGAGAAUCUGCGAAUUCUGCUGU [U44A U49A]	1.02
GGGGGCCACAGCAGAAGCGUUCACGUCGCGGCCCCUGUCAGAUACUGGGGAAUCUGCGAAUUCUGCUGU [U44A U49G]	0.993
GGGGGCCACAGCAGAAGCGUUCACGUCGCGGCCCCUGUCAGAUACUGGUGAAACUGCGAAUUCUGCUGU [U44A U53A]	0.922
GGGGGCCACAGCAGAAGCGUUCACGUCGCGGCCCCUGUCAGAUACUGGUGAACCUGCGAAUUCUGCUGU [U44A U53C]	0.684
GGGGGCCACAGCAGAAGCGUUCACGUCGCGGCCCCUGUCAGAUACUGGUGAAGCUGCGAAUUCUGCUGU [U44A U53G]	0.84
GGGGGCCACAGCAGAAGCGUUCACGUCGCGGCCCCUGUCAGAUACUGGUGAAUCAGCGAAUUCUGCUGU [U44A U55A]	0.566
GGGGGCCACAGCAGAAGCGUUCACGUCGCGGCCCCUGUCAGAUACUGGUGAAUCCGCGAAUUCUGCUGU [U44A U55C]	0.496
GGGGGCCACAGCAGAAGCGUUCACGUCGCGGCCCCUGUCAGAUACUGGUGAAUCUGCGAAAUCUGCUGU [U44A U61A]	0.843
GGGGGCCACAGCAGAAGCGUUCACGUCGCGGCCCCUGUCAGAUACUGGUGAAUCUGCGAACUCUGCUGU [U44A U61C]	0.662
GGGGGCCACAGCAGAAGCGUUCACGUCGCGGCCCCUGUCAGAUACUGGUGAAUCUGCGAAUCCUGCUGU [U44A U62C]	0.774
GGGGGCCACAGCAGAAGCGUUCACGUCGCGGCCCCUGUCAGAUACUGGUGAAUCUGCGAAUGCUGCUGU [U44A U62G]	0.685
GGGGGCCACAGCAGAAGCGUUCACGUCGCGGCCCCUGUCAGAUACUGGUGAAUCUGCGAAUUCAGCUGU [U44A U64A]	0.843
GGGGGCCACAGCAGAAGCGUUCACGUCGCGGCCCCUGUCAGAUACUGGUGAAUCUGCGAAUUCGGCUGU [U44A U64G]	0.8
GGGGGCCACAGCAGAAGCGUUCACGUCGCGGCCCCUGUCAGAUACUGGUGAAUCUGCGAAUUCUGCAGU [U44A U67A]	0.936

Variant	self-cleavage
GGGGGCCACAGCAGAAGCGUUCACGUCGCGGCCCCUGUCAGAUACUGGUGAAUCUGCGAAUUCUGCCGU [U44A U67C]	0.973
GGGGGCCACAGCAGAAGCGUUCACGUCGCGGCCCCUGUCAGAUACUGGUGAAUCUGCGAAUUCUGCGGU [U44A U67G]	0.984
GGGGGCCACAGCAGAAGCGUUCACGUCGCGGCCCCUGUCAGAUACUGGUGAAUCUGCGAAUUCUGCUGA [U44A U69A]	0.956
GGGGGCCACAGCAGAAGCGUUCACGUCGCGGCCCCUGUCAGAUACUGGUGAAUCUGCGAAUUCUGCUGC [U44A U69C]	1.05
GGGGGCCACAGCAGAAGCGUUCACGUCGCGGCCCCUGUCAGAUACUGGUGAAUCUGCGAAUUCUGCUGG [U44A U69G]	1.02
GGGGGCCACAGCAGAAGCGUUCACGUCGCGGCCCCUGUCAGAUCCUGGUGAAUCUGCGAAUUCUGCUGU [U44C]	0.957
GGGGGCCACAGCAGAAGCGUUCACGUCGCGGCCCCUGUCAGAUCCUGGUGCAUCUGCGAAUUCUGCUGU [U44C A51C]	0.99
GGGGGCCACAGCAGAAGCGUUCACGUCGCGGCCCCUGUCAGAUCCUGGUGGAUCUGCGAAUUCUGCUGU [U44C A51G]	0.693
GGGGGCCACAGCAGAAGCGUUCACGUCGCGGCCCCUGUCAGAUCCUGGUGUAUCUGCGAAUUCUGCUGU [U44C A51U]	0.919
GGGGGCCACAGCAGAAGCGUUCACGUCGCGGCCCCUGUCAGAUCCUGGUGACUCUGCGAAUUCUGCUGU [U44C A52C]	0.95
GGGGGCCACAGCAGAAGCGUUCACGUCGCGGCCCCUGUCAGAUCCUGGUGAGUCUGCGAAUUCUGCUGU [U44C A52G]	1.01
GGGGGCCACAGCAGAAGCGUUCACGUCGCGGCCCCUGUCAGAUCCUGGUGAUUCUGCGAAUUCUGCUGU [U44C A52U]	1
GGGGGCCACAGCAGAAGCGUUCACGUCGCGGCCCCUGUCAGAUCCUGGUGAAUCUGCGCAUUCUGCUGU [U44C A59C]	0.577
GGGGGCCACAGCAGAAGCGUUCACGUCGCGGCCCCUGUCAGAUCCUGGUGAAUCUGCGGAUUCUGCUGU [U44C A59G]	0.958
GGGGGCCACAGCAGAAGCGUUCACGUCGCGGCCCCUGUCAGAUCCUGGUGAAUCUGCGUAUUCUGCUGU [U44C A59U]	0.657
GGGGGCCACAGCAGAAGCGUUCACGUCGCGGCCCCUGUCAGAUCCUGGUGAAUCUGCGAGUUCUGCUGU [U44C A60G]	0.669
GGGGGCCACAGCAGAAGCGUUCACGUCGCGGCCCCUGUCAGAUCCUGGUGAAUCUGCGAUUUCUGCUGU [U44C A60U]	0.441
GGGGGCCACAGCAGAAGCGUUCACGUCGCGGCCCCUGUCAGAUCAUGGUGAAUCUGCGAAUUCUGCUGU [U44C C45A]	0.998
GGGGGCCACAGCAGAAGCGUUCACGUCGCGGCCCCUGUCAGAUCUUGGUGAAUCUGCGAAUUCUGCUGU [U44C C45U]	0.955
GGGGGCCACAGCAGAAGCGUUCACGUCGCGGCCCCUGUCAGAUCCUGGUGAAUAUGCGAAUUCUGCUGU [U44C C54A]	0.627
GGGGGCCACAGCAGAAGCGUUCACGUCGCGGCCCCUGUCAGAUCCUGGUGAAUGUGCGAAUUCUGCUGU [U44C C54G]	0.599
GGGGGCCACAGCAGAAGCGUUCACGUCGCGGCCCCUGUCAGAUCCUGGUGAAUUUGCGAAUUCUGCUGU [U44C C54U]	0.816
GGGGGCCACAGCAGAAGCGUUCACGUCGCGGCCCCUGUCAGAUCCUGGUGAAUCUGAGAAUUCUGCUGU [U44C C57A]	0.301
GGGGGCCACAGCAGAAGCGUUCACGUCGCGGCCCCUGUCAGAUCCUGGUGAAUCUGGGAAUUCUGCUGU [U44C C57G]	0.362
GGGGGCCACAGCAGAAGCGUUCACGUCGCGGCCCCUGUCAGAUCCUGGUGAAUCUGUGAAUUCUGCUGU [U44C C57U]	0.419
GGGGGCCACAGCAGAAGCGUUCACGUCGCGGCCCCUGUCAGAUCCUGGUGAAUCUGCGAAUUGUGCUGU [U44C C63G]	0.417
